Measured values taken from the supplement of paper PMC12042874.
± gives the uncertainty stated by the source.

Assay: amyloid nucleation score (Sup35N fusion, yeast selection) (log enrichment); library NNK1; higher = more nucleation; inactive = no reads after selection
Summary of the method: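 On medium lacking adenine and uracil, psi-negative yeast expressing peptides of 20 random codons fused to Sup35N were grown 7 days at 30°C after a 24-hour induction with 100 μM copper sulfate. Illumina sequencing of input and output plasmid inserts gave the reads, and sequences under 100 input reads were excluded. The nucleation score is the DiMSum log enrichment of output over input reads, centred on the mode score of non-aggregating sequences.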

Row | Substance | amyloid nucleation score
1 | YVMDMIYFYDGLVWSCLCWI | inactive
2 | LMSASNLNAVSKQCIRLRRC | 1.48 ± 0.55
3 | RWLGRRMRAGFAYGAFRTGY | 0.054 ± 0.8
4 | VFESIVNGQVMMTLN | -1.92 ± 2.4
5 | VYLVMSVCGTRNGYKHSSQL | 0.265 ± 0.25
6 | RSQNLGGVFGET | -0.066 ± 0.41
7 | FDKFKNSTVREFMWVEFSVG | 0.745 ± 0.74
8 | GSALIE | 1.5 ± 0.74
9 | VDRQFTDEFKVFTEGTKVDE | -0.5 ± 1.4
10 | GFGMFATTGKVLSMRAFQ | 0.025 ± 0.59
11 | VMKLAVRR | -0.114 ± 0.91
12 | CKNNGGKDMSVMI | 1.14 ± 0.49
13 | GLGDVKNHEFNHVDAEGSGR | -0.741 ± 0.83
14 | DLDKRMVSYDFKICGYKINF | 3.77 ± 0.1
15 | CDERNNAFLGVFGSS | -0.288 ± 0.47
16 | KTFLHSTSYNNKKRWMSLRQ | 0.485 ± 0.66
17 | MFTNLQIWWDSMACYFWDVF | 0.923 ± 0.48
18 | SKICLMSIYHLQLDPFIGMP | 3.03 ± 0.17
19 | RTINYTAMWCYS | 0.721 ± 0.41
20 | LNIGTW | 0.185 ± 0.28
21 | QVSCSGFYRRDLSSRL | 0.614 ± 0.56
22 | CRLESGHYLCSHGRVSGLR | 0.796 ± 0.38
23 | LAEYHYGSMFSLNSTYYNLS | 5.91 ± 0.069
24 | PHVTGGSPCSKHSLRW | -0.716 ± 0.65

Row | Substance | amyloid nucleation score
25 | TPLWKSII | -0.046 ± 0.68
26 | CLGQDKLWNFVFTFLYLLQF | -0.172 ± 0.48
27 | KGTGRLIRLASAWAGMGMHL | -0.332 ± 1.1
28 | YFCILGSNDSNRIGWPRRST | 0.101 ± 0.42
29 | STPAVDALRYCMTSIAFRKI | -1.11 ± 0.58
30 | FLNNLAGWGYPCFTGVYANA | -0.195 ± 0.39
31 | TCIARHLQILSVNRCCVRFA | 0.062 ± 0.44
32 | KGQSRHVSECVGWVSNVASL | 0.461 ± 0.73
33 | MGVVRLAS | -0.149 ± 0.27
34 | NRYMWDFSIAGVGVRLWINS | -0.896 ± 0.55
35 | LPDCINNVQNGYSKLSEGLS | 0.792 ± 1
36 | NRRDDNQCVSWIGVKAKVLS | 0.564 ± 0.43
37 | YRYSVQVLNCAKGAENGVII | -0.152 ± 0.32
38 | VNDQAGRLGD | 0.904 ± 0.61
39 | DRMLLMVCIVWNRFVKGFPH | inactive
40 | SDFNLDSSGMKRVKSRV | 0.817 ± 0.69
41 | TRRSRFW | 1.45 ± 0.35
42 | MYCGS | -0.279 ± 0.27
43 | YSTYQ | 0.369 ± 0.29
44 | NWELRRVTRKWRSGDTSLSD | -2.04 ± 2.4
45 | TSDGVMMVR | 0.564 ± 0.34
46 | PLLFKGYNAHRPNLVLTTML | -0.143 ± 1.7
47 | LSGLRNVLPLLTMYASIMKV | 0.688 ± 0.7
48 | LTSGLI | 0.807 ± 1

Row | Substance | amyloid nucleation score
49 | LVVAVW | 0.269 ± 0.35
50 | LPWGRTAFENFFVTMFFSKC | -0.994 ± 1.5
51 | KDVFPILGFCSAYLPYAWSA | -0.474 ± 0.29
52 | TFVQF | -0.066 ± 0.51
53 | FVSGVFGYRMYDPRRVWLSL | -0.178 ± 0.7
54 | SCHRPVPSRASSEKILGIAC | 0.157 ± 1.4
55 | AYFMVHLLIF | 1.34 ± 0.13
56 | IGGHRYGVDKY | -0.194 ± 0.72
57 | DWGPTNTFGPYQINNLTCSS | -1.91 ± 1.9
58 | YLFHMKARCMLFHKLLTYSR | inactive
59 | AVMMHDTVGVHW | -0.609 ± 0.6
60 | VWISWMSRISITRLCVWGSV | 0.379 ± 0.41
61 | RHLMLVKYVFGSRELGL | 0.169 ± 0.25
62 | ERLHMLLAKCIHVGETRHLN | 0.194 ± 0.66
63 | ITWFVYGPLGWMWGFLRPTA | 0.019 ± 0.62
64 | IHLIDLTRVSAG | 0.627 ± 0.63
65 | IFSFNMQDN | -0.363 ± 1.2
66 | NGFSDRKLDFHTRHMGH | -0.147 ± 0.36
67 | TGGTNGHKASCEVRFTVTER | 1.08 ± 0.41
68 | ETACLYLLFMSKACMRMMNS | -0.219 ± 1.1
69 | MLLSWMNAMVFTRRVHLAEP | -0.469 ± 1.2
70 | SNSAFCNGSVMCVEVSLRHA | 7.037 ± 0.062
71 | KWLPMKMKLWFDNSYGGQWF | -0.265 ± 1.2
